3 molecules from US20240301064A1 (published 2024) can be followed below.

The chains are these.
B1: MIAB133 (antibody, human IgG1, kappa)
heavy: EVQLLESGGGLVQPGGSLRLSCAASGFTFSSFWMHWVRQAPGKGLEWISYISGDSGYTNYADSVKGRFTISRDNSKNTLYLQMNSLRAEDTAVYYCARDRPYYYYMDVWGKGTTVTVSSASTKGPSVFPLAPSSKSTSGGTAALGCLVKDYFPEPVTVSWNSGALTSGVHTFPAVLQSSGLYSLSSVVTVPSSSLGTQTYICNVNHKPSNTKVDKKVEPKSCDKTHTCPPCPAPEAAGAPSVFLFPPKPKDTLMISRTPEVTCVVVDVSHEDPEVKFNWYVDGVEVHNAKTKPREEQYNSTYRVVSVLTVLHQDWLNGKEYKCKVSNKALPAPIEKTISKAKGQPREPQVYTLPPSREEMTKNQVSLTCLVKGFYPSDIAVEWESNGQPENNYKTTPPVLDSDGSFFLYSKLTVDKSRWQQGNVFSCSVMHEALHNHYTQKSLSLSPGGGGGSAPTSSSTKKTQLQLEHLLLDLQMILNGINNYKNPKLTRMLTFKFYMPKKATELKHLQCLEEELKPLEEALNLAPSKNFHLRPRDLISDINVIVLELKGSETTFMCEYADETATIVEFINRWITFSQSIISTLT
light: DIQMTQSPSSLSASVGDRVTITCRASQSVSRSLAWYQQKPGKAPKLLIYAASSLQSGVPSRFSGSGSGTDFTLTISSLQPEDFATYYCQQYKSYPVTFGQGTKVEIKRTVAAPSVFIFPPSDEQLKSGTASVVCLLNNFYPREAKVQWKVDNALQSGNSQESVTEQDSKDSTYSLSSTLTLSKADYEKHKVYACEVTHQGLSSPVTKSFNRGEC
notes: also called MIAB133-001
B2: MIAB137 (antibody, human IgG1, kappa)
heavy: EVQLLESGGGLVQPGGSLRLSCAASGFTFSDFWMHWVRQAPGKGLEWVSAISGSGGSTYYADSVKGRFTISRDNSKNTLYLQMNSLRAEDTAVYYCARDRPYYYYMDVWGKGTTVTVSSASTKGPSVFPLAPSSKSTSGGTAALGCLVKDYFPEPVTVSWNSGALTSGVHTFPAVLQSSGLYSLSSVVTVPSSSLGTQTYICNVNHKPSNTKVDKKVEPKSCDKTHTCPPCPAPEAAGAPSVFLFPPKPKDTLMISRTPEVTCVVVDVSHEDPEVKFNWYVDGVEVHNAKTKPREEQYNSTYRVVSVLTVLHQDWLNGKEYKCKVSNKALPAPIEKTISKAKGQPREPQVYTLPPSREEMTKNQVSLTCLVKGFYPSDIAVEWESNGQPENNYKTTPPVLDSDGSFFLYSKLTVDKSRWQQGNVFSCSVMHEALHNHYTQKSLSLSPGGGGGSAPTSSSTKKTQLQLEHLLLDLQMILNGINNYKNPKLTRMLTFKFYMPKKATELKHLQCLEEELKPLEEALNLAPSKNFHLRPRDLISDINVIVLELKGSETTFMCEYADETATIVEFINRWITFSQSIISTLT
light: DIQMTQSPSSLSASVGDRVTITCRASQSVSRSLAWYQQKPGKAPKLLIYAASSLQSGVPSRFSGSGSGTDFTLTISSLQPEDFATYYCQQYKSYPVTFGQGTKVEIKRTVAAPSVFIFPPSDEQLKSGTASVVCLLNNFYPREAKVQWKVDNALQSGNSQESVTEQDSKDSTYSLSSTLTLSKADYEKHKVYACEVTHQGLSSPVTKSFNRGEC
B3: MIAB136 (antibody, human IgG1, kappa)
heavy: EVQLLESGGGLVQPGGSLRLSCAASGFTFSSYAMSWVRQAPGKGLEWISYISGDSGYTNYADSVKGRFTISRDNSKNTLYLQMNSLRAEDTAVYYCARDRPYYYYMDVWGKGTTVTVSSASTKGPSVFPLAPSSKSTSGGTAALGCLVKDYFPEPVTVSWNSGALTSGVHTFPAVLQSSGLYSLSSVVTVPSSSLGTQTYICNVNHKPSNTKVDKKVEPKSCDKTHTCPPCPAPEAAGAPSVFLFPPKPKDTLMISRTPEVTCVVVDVSHEDPEVKFNWYVDGVEVHNAKTKPREEQYNSTYRVVSVLTVLHQDWLNGKEYKCKVSNKALPAPIEKTISKAKGQPREPQVYTLPPSREEMTKNQVSLTCLVKGFYPSDIAVEWESNGQPENNYKTTPPVLDSDGSFFLYSKLTVDKSRWQQGNVFSCSVMHEALHNHYTQKSLSLSPGGGGGSAPTSSSTKKTQLQLEHLLLDLQMILNGINNYKNPKLTRMLTFKFYMPKKATELKHLQCLEEELKPLEEALNLAPSKNFHLRPRDLISDINVIVLELKGSETTFMCEYADETATIVEFINRWITFSQSIISTLT
light: DIQMTQSPSSLSASVGDRVTITCRASQSVSRSLAWYQQKPGKAPKLLIYAASSLQSGVPSRFSGSGSGTDFTLTISSLQPEDFATYYCQQYKSYPVTFGQGTKVEIKRTVAAPSVFIFPPSDEQLKSGTASVVCLLNNFYPREAKVQWKVDNALQSGNSQESVTEQDSKDSTYSLSSTLTLSKADYEKHKVYACEVTHQGLSSPVTKSFNRGEC

This test deals with T1, Insulin.
T1 construct: polyreactivity antigen
T1 sequence (P01308 25-54, chain 1 of 2): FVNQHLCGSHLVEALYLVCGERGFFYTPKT
T1 sequence (P01308 90-110, chain 2 of 2): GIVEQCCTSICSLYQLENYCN
Kind of test: ELISA on coated insulin, 100 nM antibody. On the technique in general: An ELISA detects its analyte on a solid surface through an enzyme-linked reagent.
Molecule B1 gave an Insulin polyreactivity score of 13.2.
For B2 the value was 67.3; for B3, 75.4.
